Patent EP4684807A1, “LINKER AND USE THEREOF IN LIGAND DRUG CONJUGATE” (priority 2023, dated 2024)

T1: ADAM9 on ADAM9-positive cells (Calu-3, Ls174T) (UniProt Q13443 29-819, limits assumed)
T1 sequence (looked up): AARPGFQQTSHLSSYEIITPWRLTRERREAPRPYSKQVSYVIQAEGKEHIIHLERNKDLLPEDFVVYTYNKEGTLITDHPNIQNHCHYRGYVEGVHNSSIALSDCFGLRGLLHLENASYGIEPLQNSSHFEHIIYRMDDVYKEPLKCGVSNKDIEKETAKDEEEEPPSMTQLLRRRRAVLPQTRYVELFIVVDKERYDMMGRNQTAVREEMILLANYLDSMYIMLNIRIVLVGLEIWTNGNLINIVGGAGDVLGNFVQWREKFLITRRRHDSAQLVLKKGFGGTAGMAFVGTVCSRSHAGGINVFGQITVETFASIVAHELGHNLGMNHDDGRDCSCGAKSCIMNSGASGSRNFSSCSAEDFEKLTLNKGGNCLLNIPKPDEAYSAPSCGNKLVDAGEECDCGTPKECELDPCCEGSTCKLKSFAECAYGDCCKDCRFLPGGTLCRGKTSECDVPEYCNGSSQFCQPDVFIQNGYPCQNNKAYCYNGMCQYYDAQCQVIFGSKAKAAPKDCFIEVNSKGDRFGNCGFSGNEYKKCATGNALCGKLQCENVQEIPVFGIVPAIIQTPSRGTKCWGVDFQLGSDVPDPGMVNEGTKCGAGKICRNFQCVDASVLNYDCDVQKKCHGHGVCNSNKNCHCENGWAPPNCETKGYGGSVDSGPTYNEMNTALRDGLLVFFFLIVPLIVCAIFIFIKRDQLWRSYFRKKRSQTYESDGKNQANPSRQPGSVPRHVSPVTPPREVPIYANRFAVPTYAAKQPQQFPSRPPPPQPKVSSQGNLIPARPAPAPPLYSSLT

B1: ADC-3D-1 (Reference ADC-22C) (antibody, human IgG1, kappa, V domains shown)
VH: QVQLQQPGTEVVKPGASVKLSCKASGFTFPLYWMHWVRQRPGRGLEWIGRIIPIFGHTKYNEKFKNKATLTADESSSTAYMELRSLTSDDSAVYYCARGGYYYYPREGFLDYWGQGTSVTVSS
VL: DIVMTQSPASLSVSPGERASISCRSSQSVDYSGDSYMNWYQQKPGQSPRLLIYAASDRESGVPDRFSGSGSGTDFTLKISRVEEEDAGTYYCQQSREDPFTFGQGTKVDIKR
modifications: control linker-payload conjugated to antibody thiols after TCEP reduction; DAR (k) 7.5 for the whole antibody
B2: ADC-2D-1 (Reference ADC-20C) (antibody, human IgG1, kappa, V domains shown)
VH: QVQLQQPGTEVVKPGASVKLSCKASGFTFPLYWMHWVRQRPGRGLEWIGRIIPIFGHTKYNEKFKNKATLTADESSSTAYMELRSLTSDDSAVYYCARGGYYYYPREGFLDYWGQGTSVTVSS
VL: DIVMTQSPASLSVSPGERASISCRSSQSVDYSGDSYMNWYQQKPGQSPRLLIYAASDRESGVPDRFSGSGSGTDFTLKISRVEEEDAGTYYCQQSREDPFTFGQGTKVDIKR
modifications: control linker-payload conjugated to antibody thiols after TCEP reduction; DAR (k) 4.3 for the whole antibody
B3: ADC-1D-1 (Reference ADC-20C) (antibody, human IgG1, kappa, V domains shown)
VH: QVQLQQPGTEVVKPGASVKLSCKASGFTFPLYWMHWVRQRPGRGLEWIGRIIPIFGHTKYNEKFKNKATLTADESSSTAYMELRSLTSDDSAVYYCARGGYYYYPREGFLDYWGQGTSVTVSS
VL: DIVMTQSPASLSVSPGERASISCRSSQSVDYSGDSYMNWYQQKPGQSPRLLIYAASDRESGVPDRFSGSGSGTDFTLKISRVEEEDAGTYYCQQSREDPFTFGQGTKVDIKR
modifications: control linker-payload conjugated to antibody thiols after TCEP reduction; DAR (k) 4.4 for the whole antibody
B4: ADC-4D-1 (Reference ADC-22C) (antibody, human IgG1, kappa, V domains shown)
VH: QVQLQQPGTEVVKPGASVKLSCKASGFTFPLYWMHWVRQRPGRGLEWIGRIIPIFGHTKYNEKFKNKATLTADESSSTAYMELRSLTSDDSAVYYCARGGYYYYPREGFLDYWGQGTSVTVSS
VL: DIVMTQSPASLSVSPGERASISCRSSQSVDYSGDSYMNWYQQKPGQSPRLLIYAASDRESGVPDRFSGSGSGTDFTLKISRVEEEDAGTYYCQQSREDPFTFGQGTKVDIKR
modifications: control linker-payload conjugated to antibody thiols after TCEP reduction; DAR (k) 7.6 for the whole antibody

Biological target: T1, ADAM9 on ADAM9-positive cells (Calu-3, …)
Assay: cell-based or functional assay

Binder | IC50 (nM), inhibition of cell proliferation, Calu-3 cells, CellTiter-Glo, 6 days | IC50 (nM), inhibition of cell proliferation, Ls174T cells, CellTiter-Glo, 6 days
B1 | 0.34 nM | –
B2 | – | 27.1 nM
B3 | – | 15.3 nM
B4 | 0.78 nM | –
